B2: S100A4 (wild type, full-length) (natural protein)
chain: not shown
notes: S100A4, wild type, called full-length in the NMR experiment with M111; The tag and the vector are not described; also called Mts1; metastasin; source: E. coli BL21(DE3), purified (Ni-NTA, Superdex 75)
B4: M200, C-terminal fragment of human NM-MHC IIA (residues Q1761-E1960) (domain or fragment)
chain: QINTDLNLERSHAQKNENARQQLERQNKELKVKLQEMEGTVKSKYKASITALEAKIAQLEEQLDNETKERQAACKQVRRTEKKLKDVLLQVDDERRNAEQYKDQADKASTRLKQLKRQLEEAEEEAQRANASRRKLQRELEDATETADAMNREISSLKNKLRRGDLPFVVPRRMARKGAGDGSDEEVDGKADGAEAKPAE
modifications: Parallel coiled-coil dimer. N-terminal … tag omitted. The paper prints V1913I, but by its own numbering (D1908-R1923, G1938, G1940, D1941) 1913 is E and the only adjacent Val is V1914, so …

Conditions in all cases: both partners purified
In experiment [1] the target is T1, S100A4 (wild type) (UniProt P26447 1-101).
T1 construct: S100A4, wild type; predominantly a dimer under the conditions of the kinetic analysis; Concentrations are stated per monomer chain; only the Ni-NTA column is told; also called Mts1; metastasin; source: E. coli BL21(DE3), purified (Ni-NTA, Superdex 75 gel filtration)
Nature of the experiment: stopped-flow Quin-2 fluorescence (Ca2+ dissociation rate constant against [M32]); 10 uM S100A4 with Ca2+ premixed with M32 (0-50 uM), mixed with 100 uM Quin-2; kobs from single exponentials fitted against [M32] to a quadratic binding equation; apparent; legend says conditions as for Fig. 2c (taken as Fig. 5c: 100 mM NaCl, 10 mM Hepes, 100 uM Ca2+, pH 7.5, 20 C).

The target in experiment [2] is B4. The experiment can be described thus: turbidity; apparent absorbance at 300 nm, manual mixing; 5 μM M200 filaments in 100 mM NaCl, 10 mM Hepes, 0.1 mM Ca2+, pH 7.5, 20 °C; S100A4 added, then EGTA, then Ca2+.
For experiment [3], the target named is B2. The experiment can be described thus: not stated; K0 of Scheme 1: binding in the absence of Ca2+; the experiment behind the limit is not told.
Experiment [4] addresses B2. The experiment can be described thus: fluorescence polarisation; competition: displacement of F-M16^N (5 μM) from S100A4 (5 μM) by increasing M32 or M16^N, with Ca2+; fit to a competitive single-site model with Kd of F-M16^N fixed at 2 μM. For orientation: Fluorescence polarisation rises when a labelled molecule tumbles more slowly, as on binding a larger partner.
Experiment [5] has as its target B2. Nature of the experiment: stopped-flow Quin-2 fluorescence (Ca2+ dissociation); S100A4 + Ca2+ premixed with peptide or fragment, mixed with 100 μM Quin-2; 100 mM NaCl, 10 mM Hepes, 100 μM Ca2+, pH 7.5, 20 °C (M16^N also in 20 mM NaCl, 20 mM Tris, 1 mM DTT); apparent.
Experiment [6] addresses B2. Nature of the experiment: fluorescence polarisation; competition: displacement of F-M16^N (5 μM) from S100A4 (5 μM) by increasing M32 or M16^N, with Ca2+; fit to a competitive single-site model with Kd of F-M16^N fixed at 2 μM. The source holds these as a separate data set.
The target of experiment [7] is B2. Nature of the experiment: turbidity; as a12 in the presence of 250 μM M32 or 250 μM M16^N (competition for S100A4).
Experiment [8] addresses B2. Nature of the experiment: stopped-flow Quin-2 fluorescence (Ca2+ dissociation); S100A4 + Ca2+ premixed with peptide or fragment, mixed with 100 μM Quin-2; 100 mM NaCl, 10 mM Hepes, 100 μM Ca2+, pH 7.5, 20 °C (M16^N also in 20 mM NaCl, 20 mM Tris, 1 mM DTT); apparent. This is another data set of the same source.
In experiment [9] the target is B2. The experiment can be described thus: turbidity; Ca2+ dependence of the turbidity assay of M200 with S100A4; details in Supplementary Data.

T1 sequence (P26447 whole entry, one chain of several): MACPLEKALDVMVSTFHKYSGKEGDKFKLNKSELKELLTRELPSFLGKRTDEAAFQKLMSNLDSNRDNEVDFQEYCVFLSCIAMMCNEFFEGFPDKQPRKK

B1: M32 peptide (A1907-G1938 of human nonmuscle myosin heavy chain IIA) (peptide, UniProt P35579-1 1907-1938, looked up)
peptide: Ac-ADAMNREVSSLKNKLRRGDLPFVVPRRMARKG-NH2
notes: nonmuscle myosin heavy chain IIA (NM-MHC IIA), human, residues A1907-G1938; source: synthetic peptide, bought: Peptide 2.0, Inc
Turning to B1, the Kd in experiment [1] stood at 0.44 µM.
With B2, in experiment [2], the “stoichiometry N” value was 2 S100A4 monomer per M200 polypeptide chain.

B3: M32 myosin peptide (NM-MHC IIA A1907-G1938) (peptide, UniProt P35579-1 1907-1938, looked up)
peptide: Ac-ADAMNREVSSLKNKLRRGDLPFVVPRRMARKG-NH2
notes: as for B1
As for B3, the Kd in experiment [3] is > 100 µM; in experiment [4], 3 µM; in experiment [5] it was 0.4 µM. Besides, the “KD (model in which one M32 spans two S100A4 monomers)” value in experiment [6] stood at 1.5 µM.
By koff is commonly meant the first-order rate constant of dissociation. For B4, the Kd in [7] was ~0.001 µM; in [3], > 100 µM; in experiment [9], ≤ 0.003 µM. In [8], the koff was < 0.3 s⁻¹.

The record behind these values is PMC3025356, “Mechanism of the Ca^2+-Dependent Interaction between S100A4 and Tail Fragments of Nonmuscle Myosin Heavy Chain IIA” (Journal of Molecular Biology, 2011).
